Numbering of substitutions follows the chain as printed. Numbers in names are those of the source.
T1: cynomolgus TREM-1 (cTREM-1) protein (cynomolgus monkey)
T1 construct: also called cyno TREM-1
T1 chain: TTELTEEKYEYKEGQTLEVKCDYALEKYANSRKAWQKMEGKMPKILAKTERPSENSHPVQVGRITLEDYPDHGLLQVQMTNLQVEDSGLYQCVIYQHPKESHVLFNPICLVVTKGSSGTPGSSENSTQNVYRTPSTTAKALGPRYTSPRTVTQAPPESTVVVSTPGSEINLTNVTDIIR

T2: full length cynomolgus monkey (c)TREM-1 on cells (cynomolgus monkey)
T2 construct: also called cynoTREM-1; cTREM-1 reporter cell
T2 chain: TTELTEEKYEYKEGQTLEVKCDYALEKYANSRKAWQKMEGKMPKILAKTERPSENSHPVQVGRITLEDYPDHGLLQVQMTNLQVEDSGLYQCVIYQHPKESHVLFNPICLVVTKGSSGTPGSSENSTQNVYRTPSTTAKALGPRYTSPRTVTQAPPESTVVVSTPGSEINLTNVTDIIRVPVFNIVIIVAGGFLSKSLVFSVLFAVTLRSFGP

T3: cTREM-1 construct, residues M1-R180 of SEQ ID NO: 12 with six histidine residues at the C-terminus (cynomolgus monkey)
T3 chain: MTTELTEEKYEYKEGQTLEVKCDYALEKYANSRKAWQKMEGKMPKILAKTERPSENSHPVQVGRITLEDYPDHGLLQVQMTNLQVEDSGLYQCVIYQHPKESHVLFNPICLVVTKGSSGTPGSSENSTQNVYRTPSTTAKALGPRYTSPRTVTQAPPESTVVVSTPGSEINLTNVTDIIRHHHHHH

B1: mAb 0048 (antibody, V domains shown)
VH: EVQLVESGGGLVQPKGSLKLSCAASGFTFNTYAMHWVRQAPGKGLEWVARIRTKSNNYATYYVDSVKDRITISRDDSQSMLYLQMNNLKTEDTAMYYCVRDMGIRRQFAYWGQGTLVTVSA
VL: DIVLTQSPASLAVSLGQRATISCRASESVDSFGISFMHWYQQSPGQPPKLLIYRASNLESGIPARFSGSGSRTDFTLTINPVEADDVATYYCQQSNEDPYTFGGGTKLEIKR
notes: also called 14F11A1B1; 14F11
B2: mAb 0059 (antibody, IgG1, V domains shown)
VH: B1 VH with A23G, G26D, K43M, G44A, N56S, V63A, I70F, S79N, I104Q
VL: B1 VL with S31T, G33D, I34Y, M37L, S43K, K111E
notes: Recombinant; also called 14F113/14F69; 14F113A1B1C1 (recombinant)
B3: mAb 0044 (antibody, IgG2a, V domains shown)
VH: B1 VH with V5E, A23G, G26D, K43M, G44A, N56S, V63A, I70F, S79N, I104Q
VL: B1 VL with S31T, G33D, I34Y, M37L, S43K, K111E
notes: Hybridoma antibody; also called 14F69A1; 14F69
B4: mAb 0067 (antibody, V domains shown)
VH: B1 VH
VL: B1 VL
notes: also called 14F11A1B1 (recombinant)
B5: mAb 0068 (antibody, V domains shown)
VH: B1 VH
VL: B1 VL
notes: Recombinant; also called 14F128/14F11 (recombinant)
B6: mAb 0122 (antibody, human IgG4 S228P, kappa, V domains shown)
VH: EVQLVESGGGLVQPGGSLKLSCAASGFTFSTYAMHWVRQASGKGLEWVGRIRTKSSNYATYYAASVKGRFTISRDDSKNTAYLQMNSLKTEDTAVYYCTRDMGQRRQFAYWGQGTLVTVSS
VL: DIVLTQSPDSLAVSLGERATINCRASESVDTFDYSFLHWYQQKPGQPPKLLIYRASNLESGVPDRFSGSGSGTDFTLTISSLQAEDVAVYYCQQSNEDPYTFGQGTKLEIKR
notes: Second humanised TREM-1 antibody; also called 14F113/14F69 hz variant LC M4L
B7: mAb 0170 (antibody, human IgG4 S228P, kappa, V domains shown)
VH: B6 VH with Q104I
VL: B6 VL
notes: Final humanised antibody from hybridoma 14F113 with LC M4L back-mutation and HC CDR3 Q98I (Kabat); also called 14F113/14F69 hz variant LC Q98I
B8: mAb 0124 (antibody, V domains shown)
VH: B6 VH
VL: DIVMTQSPDSLAVSLGERATINCRASESVDTFDYSFLHWYQQKPGQPPKLLIYRASNLESGVPDRFSGSGSRTDFTLTISSLQAEDVAVYYCQQSNEDPYTFGQGTKLEIK
notes: Recombinant; LC G68R (Kabat) in CDR grafted 14F113; also called 14F113/14F69 hz variant LC G68R; 14F113 hz variant LC G68R
B9: mAb 0054 (antibody, V domains shown)
VH: B1 VH
VL: B1 VL
notes: Hybridoma antibody 14F128A1; also called 14F128A1; 14F128

Assays:
[1] = target: T1, cynomolgus TREM-1 (cTREM-1) protein; test: SPR, mAb captured by anti-Fc, cTREM-1 as analyte
Procedure: Binding studies were performed on a ProteOn Analyzer (BioRad) that measures molecular interactions in real time through surface plasmon resonance. Experiments were run at 25° C. and the samples were stored at 15° C. in the sample compartment. The signal (RU, response units) reported by the ProteOn is directly correlated to the mass on the individual sensor chip surfaces in six parallel flow cells. Anti-human Fc monoclonal or anti-murine Fc polyclonal antibody from Biacore human or mouse Fc capture kits were immobilized in horizontal direction onto flow cells of a GLM sensor chip according to the manufacturer's instructions. The final immobilization level of capture antibody was approximately 2600-6000 RU in different experiments. […] Binding of hTREM-1 or cTREM-1 proteins was conducted by injecting analyte (antigen) over all flow cells in horizontal direction to allow for comparative analyses of binding to different captured anti-TREM-1 antibodies relative to binding to the reference interspot. hTREM-1 or cTREM-1 proteins was diluted serially 1:3 to 1.2-100 nM or into running buffer, injected at 100 μl/min for 250 s and allowed to dissociate for 600s. The GLM surface was regenerated after each injection cycle of analyte via two 18 s injections of 10 mM Glycine, pH 1.7 and 50 mM NaOH at 100 μl/min. This regeneration step removed the anti-TREM-1 antibody and any bound TREM-1 protein from the immobilized capture antibody surface, and allowed for the subsequent binding of the next interaction sample pair.

[2] = target: T2, full length cynomolgus monkey (c)TREM-1 …; test: binding to cynomolgus monkey PBMCs, FIG. 6A
[3] = target: T2, full length cynomolgus monkey (c)TREM-1 …; test: binding to cynomolgus monkey PBMCs, FIG. 6B
[4] = target: T3, cTREM-1 construct, residues M1-R180 of …; test: HX-MS
Procedure: Non-deuterated controls were prepared by diluting into protiated hepes buffer. The hydrogen exchange experiments were performed on a waters HDX nanoAcquity ultra-high performance liquid chromatography (UPLC) system (Waters Corporation, Milford, Mass., USA) which included the HD-x PAL auto sampler (LEAP Technologies Inc., Carrboro, N.C., USA) for automated sample preparation. The LC tubing, pre- and analytical columns and switching valves were located in a chamber cooled to 0.3° C. The trypsin digestion column was stored at 15° C. Hydrogen exchange reactions were performed at 20° C. Mass analysis was performed online using a Waters SYNAPT G2 HDMS mass spectrometer.
The mass spectrometer was operated in positive ion mode with ion mobility separation enabled. […] Deuterated samples were analysed using the 6 V low energy trap collision offset only.
The MS^E-data was analysed using Waters ProteinLynx Global Server 2.5 and peptides of hTREM-1 were identified that covered 80% of the protein sequence (Table 3) and peptides of cTREM-1 were identified that covered 100% of the protein sequence (Table 4). The HX-MS data files were analysed using Waters DynamX 1.0 that automatically applies lock-mass correction and determines the degree of deuterium incorporation in each peptide. […]

[5] = target: T1, cynomolgus TREM-1 (cTREM-1) protein; test: SPR, mAb captured by anti-Fc, cTREM-1 as analyte (Example 11)
Procedure: Binding studies were performed on a ProteOn Analyzer (BioRad) that measures molecular interactions in real time through surface plasmon resonance. Experiments were run at 25° C. and the samples were stored at 15° C. in the sample compartment. The signal (RU, response units) reported by the ProteOn is directly correlated to the mass on the individual sensor chip surfaces in six parallel flow cells.
Anti-human Fc monoclonal or anti-murine Fc polyclonal antibody from Biacore human or mouse Fc capture kits were immobilized in horizontal direction onto flow cells of a GLM sensor chip according to the manufacturer's instructions. The final immobilization level of capture antibody was approximately 2600-6000 RU in different experiments. […] This regeneration step removed the anti-TREM-1 antibody and any bound TREM-1 protein from the immobilized capture antibody surface, and allowed for the subsequent binding of the next interaction sample pair.

Binder | Kd [1] [nM] | other results
B1 | 1.2 | binding result [2]: binds
B2 | 0.67 | 
B3 |  | binding result [3]: binds
B4 | 4.7 | 
B5 | 12 | 
B6 | 0.97 | 
B7 | 3.6 | binding result [4]: binds; Kd [5]: 3 nM
B8 | 1.1 | 
B9 |  | binding result [2]: binds

— patent publication US20170190775A1 (published 2017)
